These results are taken from article PMC8567202, “Phosphoinositide-binding activity of Smad2 is essential for its function in TGF-β signaling” (The Journal of Biological Chemistry, 2021).

Assay [1] in a line: SPR membrane binding to POPC/POPS vesicles. The note with it: for binding to POPC/POPS (80:20): RU/RUmax, 100 nM protein. An excerpt:
It has been generally thought that Smad2 and Smad3 are targeted to the activated TGF-β signaling complex by direct interaction with TβRI ([1], [2]) or via SARA ([7]). However, it has been shown that many cytosolic proteins that are targeted to membrane proteins or membrane-anchored signaling complexes have affinity for membrane lipids ([14]), phosphoinositides (PtdInsPs) in particular, and that their membrane recruitment is mediated by coincident lipid–protein and protein–protein interactions ([15], [16]). For most of these proteins, their PtdInsP specificity directs their membrane targeting behaviors: e.g., PI(4,5)P2-specific proteins are recruited to PM where the highest concentration of PI(4,5)P2 is found, whereas PI(3)P-specific proteins are targeted to PI(3)P-rich EEs ([17], [18]). To resolve uncertainty about the functional location of the activated TGF-β signaling complex, we thus explored the possibility that lipid-binding activity of Smad2 may play a role in specific targeting of Smad2 to the active TGF-β receptor complex either at the PM or at EEs. Lipid-binding activity of Smad proteins has not been reported to date. We thus measured the binding of bacterially expressed Smad2 to large unilamellar vesicles (LUVs) containing various lipids by surface plasmon resonance (SPR) analysis ([19], [20]). Lipid selectivity determined by SPR analysis is typically reported as the relative resonance unit (RU) values for different lipids at a given protein concentration ([21], [22]). Although simple and intuitive, this type of analysis can sometimes yield misleading and erroneous results because some proteins show widely different RU values when bound to different lipid surfaces. Thus, a more reliable parameter that represents the fraction of the membrane bound protein molecules at a given protein concentration would be a normalized value of RU/RUmax where RUmax indicates the maximal RU value when a given lipid surface is saturated with the protein molecules. We thus estimated RUmax for different lipid species by employing the highest protein concentration experimentally feasible (e.g., 1 μM) and determined RU/RUmax for different lipids at the protein concentration that allows robust comparison (e.g., 100 nM). Once the lipid selectivity has been determined by this semiquantitative approach, we then rigorously determined and compared Kd values for selected lipids for more accurate quantitative determination of lipid selectivity.
Figure 1 Membrane-binding properties of Smad2 FL protein and MH2 domain determined by SPR analysis.A, PtdInsP selectivity of Smad2-FL determined using POPC/POPS/PtdInsP (77:20:3 in mole ratio) LUVs coated on the L1 sensor chip. The protein concentration was 100 nM. PIP3 indicates PI(3,4,5)P3. B, determination of Kd for binding of Smad2 FL to different LUVs. The protein concentration was varied from 0 to 500 nM. C, PI(4,5)P2 concentration dependence of membrane binding of Smad2-FL determined using POPC/POPS/PI(4,5)P2 (77-x:20:x, x = 0–5 mol%) LUVs. The protein concentration was 100 nM. D, PtdInsP selectivity of the Smad2 MH2 domain determined using POPC/POPS/PtdInsP (77:20:3 in mole ratio) LUVs. The protein concentration was 100 nM. Normalized RU values (RU/RUmax) were used for all figures but (C) for more accurate determination of PtdInsP selectivity. RUmax values determined for different vesicles at 1 μM Smad2 were: 280 ± 20 for POPC/POPS/PI(4,5)P2 (77:20:3), 370 ± 10 for POPC/POPS/PI(3,4)P2 (77:20:3), 400 ± 15 for POPC/POPS/PI(3,4,5)P3 (or PIP3) (77:20:3), 400 ± 20 for POPC/POPS/PI(3)P (77:20:3), and 380 ± 20 for POPC/POPS (80:20). Only the association phases of the sensorgrams are shown and used for further analysis. Each set of sensorgrams shown in A and D are representatives of >5 independent measurements. Data points shown in B and C are the average ±S.D. values from triplicate measurements. […]

Assay [2] in a line: SPR membrane binding to POPC/POPS/PI(3)P vesicles. The conditions noted are these: POPC/POPS/PI(3)P (77:20:3). An excerpt: It has been generally thought that Smad2 and Smad3 are targeted to the activated TGF-β signaling complex by direct interaction with TβRI ([1], [2]) or via SARA ([7]). However, it has been shown that many cytosolic proteins that are targeted to membrane proteins or membrane-anchored signaling complexes have affinity for membrane lipids ([14]), phosphoinositides (PtdInsPs) in particular, and that their membrane recruitment is mediated by coincident lipid–protein and protein–protein interactions ([15], [16]). […] We thus measured the binding of bacterially expressed Smad2 to large unilamellar vesicles (LUVs) containing various lipids by surface plasmon resonance (SPR) analysis ([19], [20]). Lipid selectivity determined by SPR analysis is typically reported as the relative resonance unit (RU) values for different lipids at a given protein concentration ([21], [22]). […] We thus estimated RUmax for different lipid species by employing the highest protein concentration experimentally feasible (e.g., 1 μM) and determined RU/RUmax for different lipids at the protein concentration that allows robust comparison (e.g., 100 nM). Once the lipid selectivity has been determined by this semiquantitative approach, we then rigorously determined and compared Kd values for selected lipids for more accurate quantitative determination of lipid selectivity. […]

B1: Smad2-W422A: W422A mutant of full-length Smad2; specific PI(4,5)P2 binding-compromised (protein)
chain: MSSILPFTPPVVKRLLGWKKSAGGSGGAGGGEQNGQEEKWCEKAVKSLVKKLKKTGRLDELEKAITTQNCNTKCVTIPSTCSEIWGLSTANTVDQWDTTGLYSFSEQTRSLDGRLQVSHRKGLPHVIYCRLWRWPDLHSHHELKAIENCEYAFNLKKDEVCVNPYHYQRVETPVLPPVLVPRHTEILTELPPLDDYTHSIPENTNFPAGIEPQSNYIPETPPPGYISEDGETSDQQLNQSMDTGSPAELSPTTLSPVNHSLDLQPVTYSEPAFWCSIAYYELNQRVGETFHASQPSLTVDGFTDPSNSERFCLGLLSNVNRNATVEMTRRHIGRGVRLYYIGGEVFAECLSDSAIFVQSPNCNQRYGWHPATVCKIPPGCNLKIFNNQEFAALLAQSVNQGFEAVYQLTRMCTIRMSFVKGAGAEYRRQTVTSTPCWIELHLNGPLQWLDKVLTQMGSPSVRCSSMS
modifications: left off: His6, N-terminal, state not stated
Take B1: in assay [1] (SPR), the “binding to POPC/POPS (80:20)” value is given as “much less effects on binding”.

B2: Smad2- R427A/R428A: double mutant of full-length Smad2; PI(4,5)P2 and TβRI binding-compromised (protein)
chain: MSSILPFTPPVVKRLLGWKKSAGGSGGAGGGEQNGQEEKWCEKAVKSLVKKLKKTGRLDELEKAITTQNCNTKCVTIPSTCSEIWGLSTANTVDQWDTTGLYSFSEQTRSLDGRLQVSHRKGLPHVIYCRLWRWPDLHSHHELKAIENCEYAFNLKKDEVCVNPYHYQRVETPVLPPVLVPRHTEILTELPPLDDYTHSIPENTNFPAGIEPQSNYIPETPPPGYISEDGETSDQQLNQSMDTGSPAELSPTTLSPVNHSLDLQPVTYSEPAFWCSIAYYELNQRVGETFHASQPSLTVDGFTDPSNSERFCLGLLSNVNRNATVEMTRRHIGRGVRLYYIGGEVFAECLSDSAIFVQSPNCNQRYGWHPATVCKIPPGCNLKIFNNQEFAALLAQSVNQGFEAVYQLTRMCTIRMSFVKGWGAEYAAQTVTSTPCWIELHLNGPLQWLDKVLTQMGSPSVRCSSMS
modifications: left off: His6, N-terminal, state not stated
Turning to B2, the “binding to POPC/POPS (80:20)” value in assay [1] (SPR) is given as “much less effects on binding”.

B3: Smad2 WT: bacterially expressed full-length Smad2 wild-type (protein)
chain: MSSILPFTPPVVKRLLGWKKSAGGSGGAGGGEQNGQEEKWCEKAVKSLVKKLKKTGRLDELEKAITTQNCNTKCVTIPSTCSEIWGLSTANTVDQWDTTGLYSFSEQTRSLDGRLQVSHRKGLPHVIYCRLWRWPDLHSHHELKAIENCEYAFNLKKDEVCVNPYHYQRVETPVLPPVLVPRHTEILTELPPLDDYTHSIPENTNFPAGIEPQSNYIPETPPPGYISEDGETSDQQLNQSMDTGSPAELSPTTLSPVNHSLDLQPVTYSEPAFWCSIAYYELNQRVGETFHASQPSLTVDGFTDPSNSERFCLGLLSNVNRNATVEMTRRHIGRGVRLYYIGGEVFAECLSDSAIFVQSPNCNQRYGWHPATVCKIPPGCNLKIFNNQEFAALLAQSVNQGFEAVYQLTRMCTIRMSFVKGWGAEYRRQTVTSTPCWIELHLNGPLQWLDKVLTQMGSPSVRCSSMS
modifications: left off: His6, N-terminal, state not stated
notes: bacterially expressed full-length Smad2 wild-type
Regarding B3, the RUmax in assay [1] (POPC/POPS (80:20), 1 μM Smad2) amounted to 380 ± 20; in assay [2] (1 μM Smad2), 400 ± 20. Moreover, the Kd was 560 ± 150 nM in assay [1] (SPR, L1 chip, 23 °C, 20 mM Tris, pH 7.4, 0.16 M NaCl, POPC/POPS (80:20), average ±S.D., n = 3, read-out: Kd for lipid binding, PC/PS) and 210 ± 34 nM in assay [2] (SPR, L1 chip, 23 °C, 20 mM Tris, pH 7.4, 0.16 M NaCl, average ±S.D., n = 3, read-out: Kd for lipid binding, PC/PS/PI(3)P).

B4: Smad2-K420A: K420A mutant of full-length Smad2; predominantly TβRI binding-compromised (protein)
chain: MSSILPFTPPVVKRLLGWKKSAGGSGGAGGGEQNGQEEKWCEKAVKSLVKKLKKTGRLDELEKAITTQNCNTKCVTIPSTCSEIWGLSTANTVDQWDTTGLYSFSEQTRSLDGRLQVSHRKGLPHVIYCRLWRWPDLHSHHELKAIENCEYAFNLKKDEVCVNPYHYQRVETPVLPPVLVPRHTEILTELPPLDDYTHSIPENTNFPAGIEPQSNYIPETPPPGYISEDGETSDQQLNQSMDTGSPAELSPTTLSPVNHSLDLQPVTYSEPAFWCSIAYYELNQRVGETFHASQPSLTVDGFTDPSNSERFCLGLLSNVNRNATVEMTRRHIGRGVRLYYIGGEVFAECLSDSAIFVQSPNCNQRYGWHPATVCKIPPGCNLKIFNNQEFAALLAQSVNQGFEAVYQLTRMCTIRMSFVAGWGAEYRRQTVTSTPCWIELHLNGPLQWLDKVLTQMGSPSVRCSSMS
modifications: left off: His6, N-terminal, state not stated
Take B4: the “binding to POPC/POPS (80:20)” value in assay [1] (SPR) is “modestly and similarly reduced binding to both vesicles”.

B5: Smad2-Y426A: Y426A mutant of full-length Smad2; specific PI(4,5)P2 binding-compromised (protein)
chain: MSSILPFTPPVVKRLLGWKKSAGGSGGAGGGEQNGQEEKWCEKAVKSLVKKLKKTGRLDELEKAITTQNCNTKCVTIPSTCSEIWGLSTANTVDQWDTTGLYSFSEQTRSLDGRLQVSHRKGLPHVIYCRLWRWPDLHSHHELKAIENCEYAFNLKKDEVCVNPYHYQRVETPVLPPVLVPRHTEILTELPPLDDYTHSIPENTNFPAGIEPQSNYIPETPPPGYISEDGETSDQQLNQSMDTGSPAELSPTTLSPVNHSLDLQPVTYSEPAFWCSIAYYELNQRVGETFHASQPSLTVDGFTDPSNSERFCLGLLSNVNRNATVEMTRRHIGRGVRLYYIGGEVFAECLSDSAIFVQSPNCNQRYGWHPATVCKIPPGCNLKIFNNQEFAALLAQSVNQGFEAVYQLTRMCTIRMSFVKGWGAEARRQTVTSTPCWIELHLNGPLQWLDKVLTQMGSPSVRCSSMS
modifications: left off: His6, N-terminal, state not stated
B5: the “binding to POPC/POPS (80:20)” value in assay [1] (SPR) was “much less effects on binding”.
